Common to all, as to assay: SPR
For one experiment, the target named is T1, human IFN-α4 (human, UniProt P05014 24-189).
T1 chain: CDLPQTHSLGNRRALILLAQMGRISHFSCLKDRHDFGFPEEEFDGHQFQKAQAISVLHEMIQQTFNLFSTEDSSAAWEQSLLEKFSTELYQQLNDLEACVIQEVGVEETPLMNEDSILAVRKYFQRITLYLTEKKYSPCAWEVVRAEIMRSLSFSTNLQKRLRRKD

The target of another experiment is T2, human IFN-α14 (human, UniProt P01570 24-189).
T2 chain: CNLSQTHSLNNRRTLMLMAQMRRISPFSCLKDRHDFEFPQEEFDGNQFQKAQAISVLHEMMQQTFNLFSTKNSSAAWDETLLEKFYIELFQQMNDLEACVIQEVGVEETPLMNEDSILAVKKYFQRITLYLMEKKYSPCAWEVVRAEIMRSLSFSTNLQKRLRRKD

In another experiment the target is human IFN-ω (human, UniProt P05000 24-195).

In patent US20190071499A1 (published 2019) one finds Kd data, which are given here for one molecule.

For orientation: Kd means the free concentration of one partner at which half of the binding sites on the other are occupied at equilibrium, for simple one-to-one binding. Low readings indicate tighter binding, high ones weaker binding.

Sequence of human IFN-ω (P05000 24-195): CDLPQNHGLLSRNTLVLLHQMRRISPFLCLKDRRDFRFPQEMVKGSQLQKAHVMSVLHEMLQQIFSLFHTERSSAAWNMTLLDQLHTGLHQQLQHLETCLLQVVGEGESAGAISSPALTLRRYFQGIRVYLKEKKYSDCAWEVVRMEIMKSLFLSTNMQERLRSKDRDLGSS

B1: 26B9 (antibody, V domains shown)
VH: QILLQESGPGLVKPTETLSLTCSVSGDSISDSSHYWAWIRQPPGKGPEWIGSVYFSSMTHYNPSLKSRVSISVDKPKNQFSLKVTSVTVADTATYYCARQALARVGAMNWFDPWGQGSLVTVSS
VL: DIIMTQSPDSLPVSLGEGVTINCKSSQSVFFTSSNKSCLAWYQQKPGKSPKLLIYWASTRQSGVPDRFRGSGSGTDFSLTITSLQAEDVAVYFCQQCQTSPPTFGGGTRLEIKR
As for B1, the Kd in the experiment with human IFN-α4 was determined as 0.0375 pM; with human IFN-α14, 0.0328 pM; with human IFN-ω, 0.125 pM.
